Results on 2 molecules are retold here after doi:10.1101/2022.04.04.486996 (bioRxiv, 2022).

Series [1] concerns the target T1, E. coli ketosynthase FabF (E. coli, UniProt P0AAI5 1-413).
T1 sequence: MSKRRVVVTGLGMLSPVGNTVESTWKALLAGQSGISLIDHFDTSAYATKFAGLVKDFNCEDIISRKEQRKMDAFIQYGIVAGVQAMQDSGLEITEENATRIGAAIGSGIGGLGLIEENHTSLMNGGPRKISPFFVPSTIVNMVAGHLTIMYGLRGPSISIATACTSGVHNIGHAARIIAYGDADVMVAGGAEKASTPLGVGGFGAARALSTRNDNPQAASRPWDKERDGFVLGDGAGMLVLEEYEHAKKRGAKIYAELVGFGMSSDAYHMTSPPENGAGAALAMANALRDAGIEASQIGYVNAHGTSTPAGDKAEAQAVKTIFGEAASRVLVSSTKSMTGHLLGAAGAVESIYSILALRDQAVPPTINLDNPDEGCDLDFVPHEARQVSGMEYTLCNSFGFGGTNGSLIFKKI
Description: cross-linking.

The series “crystal structure” concerns the molecule itself. Description: crystal structure.

B1: ACP loaded with the (Z)-C14Cl chloroacrylate crosslinking probe (crypto-ACP) (natural protein, E. coli)
chain: STIEERVKKIIGEQLGVKQEEVTNNASFVEDLGADSLDTVELVMALEEEFDTEIPDEEAEKITTVQAAIDYINGHQA
modifications: S36 carries the 4'-phosphopantetheine analogue with the (Z)-C14Cl (C14-chloroacrylate) crosslinking probe
For B1, the binding result in series [1] was “binds”.

B2: E. coli ketosynthase FabB (enzyme)
chain: MKRAVITGLGIVSSIGNNQQEVLASLREGRSGITFSQELKDSGMRSHVWGNVKLDTTGLIDRKVVRFMSDASIYAFLSMEQAIADAGLSPEAYQNNPRVGLIAGSGGGSPRFQVFGADAMRGPRGLKAVGPYVVTKAMASGVSACLATPFKIHGVNYSISSACATSAHCIGNAVEQIQLGKQDIVFAGGGEELCWEMACEFDAMGALSTKYNDTPEKASRTYDAHRDGFVIAGGGGMVVVEELEHALARGAHIYAEIVGYGATSDGADMVAPSGEGAVRCMKMAMHGVDTPIDYLNSHGTSTPVGDVKELAAIREVFGDKSPAISATKAMTGHSLGAAGVQEAIYSLLMLEHGFIAPSINIEELDEQAAGLNIVTETTDRELTTVMSNSFGFGGTNATLVMRKLKD
Turning to B2, the stoichiometry N (commonly the number of molecules, sites or subunits per partner or assembly) in “crystal structure” was 2.
